These results are taken from publication PMC9576728.

In one assay the target is POU2F3 (UniProt Q9UKI9). Kind of assay: co-immunoprecipitation (IP:HA) and western blot, quantified. Conditions: HEK293T cells, IP:HA lanes, parent: 1. (A western blot detects proteins with antibodies after separation by electrophoresis.)
For the next assay, the target named is FLAG-POU2F3 (UniProt Q9UKI9). Kind of assay: co-immunoprecipitation (IP:FLAG) and western blot, quantified. Conditions: HEK293T cells, IP:FLAG lanes, parent: 1.

As to “HA-COLCA2 (WT) (from UniProt A8K830) VKELL>DAAPP (V>D; K>A; E>A; L>P; L>P; residue numbers not printed)”, the ratio to parent came out at 0.37 with POU2F3 (normalised POU2F3/COLCA2 ratio); 0.53 with POU2F3 (raw POU2F3 band (untagged control lane 0.29; HA bait band WT 1, DAAPP 1.44)); 0.52 in the assay with FLAG-POU2F3 (normalised COLCA2/POU2F3 ratio); 0.56 in the assay with FLAG-POU2F3 (raw HA band (V5-POU2F3 control lane 0; FLAG bait band WT 1, DAAPP 1.07, V5 control 0.09)).
